# Source: US20250011363A1, “OPTIMIZED SHORTENED PEPTIDE THAT BINDS TO ACETYLCHOLINE RECEPTOR, AND USE THEREOF” (SKINMED CO., LTD., priority 2021, published 2025)
# Target: acetylcholine receptor (Homo sapiens, UniProt P02708)
# Experiment: SPR binding affinity (RU) of optimized 5mer/6mer/7mer peptides, Examples 6-7
# Details: SPR, Resonance Units; peptides tested at 10 μM; 6mer-1 Bottom sequence
# How it was run: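 Peptides were tested at 10 μM by surface plasmon resonance against the receptor, with binding reported as response units. Library sequences were built from frequent (top) or infrequent (bottom) amino acid combinations in 5mer, 6mer-1 and 6mer-2 series.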
# Chain of acetylcholine receptor (P02708 21-457): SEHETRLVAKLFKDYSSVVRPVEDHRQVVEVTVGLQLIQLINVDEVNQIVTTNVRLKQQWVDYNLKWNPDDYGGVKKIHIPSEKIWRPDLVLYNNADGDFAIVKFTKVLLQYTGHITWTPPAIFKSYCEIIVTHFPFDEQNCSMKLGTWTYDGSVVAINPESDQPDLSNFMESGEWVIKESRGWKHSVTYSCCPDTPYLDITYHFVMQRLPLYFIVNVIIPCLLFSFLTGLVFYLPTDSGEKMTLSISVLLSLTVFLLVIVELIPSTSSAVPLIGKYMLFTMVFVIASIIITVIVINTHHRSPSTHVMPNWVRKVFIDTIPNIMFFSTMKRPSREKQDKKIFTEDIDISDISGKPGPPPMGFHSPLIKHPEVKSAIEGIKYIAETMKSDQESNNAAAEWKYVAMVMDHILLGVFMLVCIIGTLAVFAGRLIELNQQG
row,Substance,Binding affinity
1,6mer-1-1078 (RRPDIK),25 Ru
2,6mer-1-1079 (RKHPVK),25 Ru
3,6mer-1-1080 (KKHNMR),38 Ru
4,6mer-1-1081 (KRPSNK),23 Ru
5,6mer-1-1082 (KKTCDR),37 Ru
6,6mer-1-1083 (KKNAVR),36 Ru
7,6mer-1-1084 (KKCCPK),25 Ru
8,6mer-1-1085 (KREAMK),33 Ru
9,6mer-1-1086 (RKEANK),22 Ru
10,6mer-1-1087 (KKPWKR),27 Ru
11,6mer-1-1088 (RRETHK),38 Ru
12,6mer-1-1089 (RKFTKK),31 Ru

# Same assay, conditions: SPR, peptides tested at 10 μM; 6mer-1 Bottom sequence (Table 11)
row,Substance,Binding affinity
1,6mer-1-930 (KKESNK),43 Ru
2,6mer-1-931 (KKNWPR),35 Ru
3,6mer-1-932 (KRFEFK),38 Ru
4,6mer-1-933 (RRPWNR),28 Ru
5,6mer-1-934 (KRPPGK),39 Ru
6,6mer-1-935 (RKKDIK),40 Ru
7,6mer-1-936 (RKETDR),36 Ru
8,6mer-1-937 (RKPTNR),34 Ru
9,6mer-1-938 (KKIAWK),28 Ru
10,6mer-1-939 (KRNDFK),41 Ru
11,6mer-1-940 (RKPEDR),29 Ru
12,6mer-1-941 (RKTPKK),29 Ru
13,6mer-1-942 (RRMMVR),37 Ru
14,6mer-1-943 (KKEHDK),43 Ru
15,6mer-1-944 (RKPAGK),25 Ru
16,6mer-1-945 (RKTSIK),31 Ru
17,6mer-1-946 (RRCEPR),31 Ru
18,6mer-1-947 (KRTKGR),31 Ru
19,6mer-1-948 (RKFTVR),24 Ru
20,6mer-1-949 (RKEMPR),37 Ru
21,6mer-1-950 (RKEDKR),29 Ru
22,6mer-1-951 (RKAMDK),29 Ru
23,6mer-1-952 (KRHDKK),28 Ru

row,Substance,Binding affinity
1,6mer-1-953 (KRTNGK),26 Ru
2,6mer-1-954 (KKAKGR),41 Ru
3,6mer-1-955 (RKECFK),23 Ru
4,6mer-1-956 (KRKSNK),34 Ru
5,6mer-1-957 (KKPPDK),43 Ru
6,6mer-1-958 (KRYAGR),43 Ru
7,6mer-1-959 (KKIWFR),36 Ru
8,6mer-1-960 (KKCPFR),34 Ru
9,6mer-1-961 (RRTWAR),122 Ru
10,6mer-1-962 (KKNCDK),42 Ru
11,6mer-1-963 (RREEDK),29 Ru
12,6mer-1-964 (RKFKNK),42 Ru
13,6mer-1-965 (KRIWDK),36 Ru
14,6mer-1-966 (RRNSWK),22 Ru
15,6mer-1-967 (RRTEDR),24 Ru
16,6mer-1-968 (RREDFR),39 Ru
17,6mer-1-969 (RKDHWR),33 Ru
18,6mer-1-970 (RRCCAR),38 Ru
19,6mer-1-971 (RKIEMK),32 Ru
20,6mer-1-972 (RRHTHK),43 Ru
21,6mer-1-973 (RRDHVK),25 Ru
22,6mer-1-974 (RKPAHK),27 Ru
23,6mer-1-975 (RKASIK),22 Ru

row,Substance,Binding affinity
1,6mer-1-976 (RKEMIK),40 Ru
2,6mer-1-977 (RRPCFR),43 Ru
3,6mer-1-978 (RRKSHK),43 Ru
4,6mer-1-979 (RRYWEK),42 Ru
5,6mer-1-980 (RKICAK),33 Ru
6,6mer-1-981 (RKDDKK),27 Ru
7,6mer-1-982 (KRCPDR),35 Ru
8,6mer-1-983 (KRPHKK),38 Ru
9,6mer-1-984 (KKESDK),33 Ru
10,6mer-1-985 (KRKSER),22 Ru
11,6mer-1-986 (KKAEEK),22 Ru
12,6mer-1-987 (RRTEFK),34 Ru
13,6mer-1-988 (KRYPDR),24 Ru
14,6mer-1-989 (KRATVR),27 Ru
15,6mer-1-990 (RRFTER),40 Ru
16,6mer-1-991 (RKAHDK),25 Ru
17,6mer-1-992 (RRCTAK),28 Ru
18,6mer-1-993 (KRAHDK),26 Ru
19,6mer-1-994 (KKHEFR),37 Ru
20,6mer-1-995 (KRCHHR),33 Ru
21,6mer-1-996 (RRPPWK),39 Ru
22,6mer-1-997 (KKPTFR),35 Ru
